Measured values from patent US20260199504A1 (JIANGSU HENGRUI PHARMACEUTICALS, published 2026).

T1: human Nectin-4 on Nectin4-CHOK1 cells (CHO-K1 cell strain highly expressing Nectin-4) (human, UniProt Q96NY8 32-510)
T1 sequence: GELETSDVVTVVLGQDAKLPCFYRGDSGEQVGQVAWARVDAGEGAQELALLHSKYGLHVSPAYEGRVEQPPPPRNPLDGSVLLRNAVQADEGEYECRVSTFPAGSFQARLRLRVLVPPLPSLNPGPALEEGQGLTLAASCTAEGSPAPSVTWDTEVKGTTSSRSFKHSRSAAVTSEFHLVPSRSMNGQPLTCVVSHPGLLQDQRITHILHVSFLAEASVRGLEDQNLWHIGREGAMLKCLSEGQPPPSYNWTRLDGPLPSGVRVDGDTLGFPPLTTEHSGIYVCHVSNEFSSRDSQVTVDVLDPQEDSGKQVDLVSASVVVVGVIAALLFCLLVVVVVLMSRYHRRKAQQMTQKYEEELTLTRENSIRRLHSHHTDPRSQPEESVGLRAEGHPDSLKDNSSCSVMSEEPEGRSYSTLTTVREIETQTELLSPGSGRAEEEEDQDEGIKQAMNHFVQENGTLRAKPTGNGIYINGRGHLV

T2: Nectin-4 expressed on T47D and MDA-MB-468 human breast cancer cells (human, UniProt Q96NY8 32-510)
T2 construct: whole, on cells; Nectin-4 native to the cell lines; also called Nectin-4-expressing cells
T2 sequence (looked up): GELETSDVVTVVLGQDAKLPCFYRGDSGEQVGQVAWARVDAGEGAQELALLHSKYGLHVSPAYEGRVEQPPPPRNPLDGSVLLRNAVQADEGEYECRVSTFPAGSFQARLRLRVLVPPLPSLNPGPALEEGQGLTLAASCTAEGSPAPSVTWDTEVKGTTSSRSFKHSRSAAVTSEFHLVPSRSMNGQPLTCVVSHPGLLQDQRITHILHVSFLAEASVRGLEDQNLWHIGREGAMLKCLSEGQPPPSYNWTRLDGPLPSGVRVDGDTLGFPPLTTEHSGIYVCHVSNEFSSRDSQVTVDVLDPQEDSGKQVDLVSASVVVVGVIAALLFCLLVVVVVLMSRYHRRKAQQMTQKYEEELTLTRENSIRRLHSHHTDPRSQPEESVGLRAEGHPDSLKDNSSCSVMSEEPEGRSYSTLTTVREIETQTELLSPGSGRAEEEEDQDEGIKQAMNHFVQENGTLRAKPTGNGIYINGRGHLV

T3: human Nectin-4 His (Cat. #19771-H08H, Sino Biological) (human, UniProt Q96NY8 32-349)
T3 construct: Bought soluble antigen; the construct is probably only a part of it; also called human Nectin-4 His antigen; not shown: His tag
T3 sequence: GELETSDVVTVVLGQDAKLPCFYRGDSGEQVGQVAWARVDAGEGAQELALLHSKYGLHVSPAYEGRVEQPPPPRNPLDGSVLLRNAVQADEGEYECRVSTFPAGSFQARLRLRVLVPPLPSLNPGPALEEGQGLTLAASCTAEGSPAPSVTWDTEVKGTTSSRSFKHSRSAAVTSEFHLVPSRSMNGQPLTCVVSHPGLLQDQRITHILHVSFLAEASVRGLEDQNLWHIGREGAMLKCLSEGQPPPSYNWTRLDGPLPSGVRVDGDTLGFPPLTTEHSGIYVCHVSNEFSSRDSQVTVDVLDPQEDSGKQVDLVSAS


Columns and labels:
[1] = molecular target: T1, human Nectin-4 on Nectin4-CHOK1 cells …; experiment: cell-based or functional assay
[2] = molecular target: T2, Nectin-4 expressed on T47D and …; experiment: flow cytometry on T47D cells
Experimental: (§1) After centrifugation and removal of the supernatant, the test antibody that was diluted with the FACS buffer to different concentrations was added at 50 μL/well. The plate was incubated in the dark in a 4° C. refrigerator for 1 h. The plate was washed 3 times with FACS buffer by centrifugation at 500 g, and Alexa Fluor 488 Goat anti-Human IgG (H+L) (invitrogen, A-11013) was then added in a working concentration. The plate was incubated in the dark in a 4° C. refrigerator for 40 min. The plate was washed 3 times with FACS buffer by centrifugation at 500 g and tested on a BD FACSCantoII flow cytometer for geometric mean fluorescence intensity, and the EC₅₀ values for the binding of the antibodies to Nectin-4-expressing cells were calculated.

[3] = molecular target: T2, Nectin-4 expressed on T47D and …; experiment: flow cytometry on MDA-MB-468 cells
Experimental: as §1

[4] = molecular target: T1, human Nectin-4 on Nectin4-CHOK1 cells …; experiment: flow cytometry on Nectin4-CHOK1 cells
Experimental: as §1

[5] = molecular target: T3, human Nectin-4 His (Cat. #19771-H08H, …); experiment: SPR, Biacore T200; antibody captured on Protein A chip, human Nectin-4 His as analyte; 1:1 Langmuir model
Experimental: The anti-Nectin-4 antibody was analyzed by Biacore T200 (GE) for characteristic affinity and binding kinetics. A Protein A biosensor chip (Cat. #29127556, GE) was used to affinity-capture IgG antibodies, and then the human Nectin-4 His (Cat. #19771-H08H, Sino Biological) antigen that was diluted with HBS-EP buffer (pH 7.4) (Cat. #BR-1001-88, GE) to a series of concentrations was allowed to flow over the surface of the chip. The antigen-antibody binding kinetics was tracked for 3 min and the dissociation kinetics was tracked for 10 min. Reaction signals were detected in real time using a Biacore T200 instrument to obtain binding and dissociation curves. After dissociation was complete in each cycle, the biosensor chip was washed with 10 mM Gly-HCl pH 1.5 (Cat. #BR-1003-54, GE) for regeneration. The data obtained were analyzed with BIAevaluation software of GE using a 1:1 (Langmuir) binding model.

Row | IC50 (nM) (DT3C antibody endocytosis assay, Nectin4-CHOK1 cells) [1] | EC50 [2] [nM] | EC50 [3] [nM] | EC50 [4] [nM] | Kd [5] [nM] | koff [5] [s⁻¹] | kon [5] [M⁻¹ s⁻¹] | Binder
1 | 0.5 | 0.26 | 0.23 | 0.94 | 9.33 | 0.00661 | 709000 | EV201 (positive control antibody; antibody of enfortumab vedotin) (antibody, human IgG1, kappa, V domains shown, also called control antibody EV201; control molecule) VH: EVQLVESGGGLVQPGGSLRLSCAASGFTFSSYNMNWVRQAPGKGLEWVSYISSSSSTIYYADSVKGRFTISRDNAKNSLSLQMNSLRDEDTAVYYCARAYYYGMDVWGQGTTVTVSS VL: DIQMTQSPSSVSASVGDRVTITCRASQGISGWLAWYQQKPGKAPKFLIYAASTLQSGVPSRFSGSGSGTDFTLTISSLQPEDFATYYCQQANSFPPTFGGGTKVEIKR
2 | 0.43 | 0.07 | 0.06 | 0.78 | 5.15 | 0.00189 | 367000 | NEC49 (fully human-derived anti-Nectin-4 antibody) (antibody, V domains shown, also called antibody NEC49) VH: EVQLLESGGGLVQPGGSLRLSCAASGFTFSSYAMSWVRQAPGKGLEWVSAIYSGGSTYYADSVKGRFTISRDNSKNTLYLQMNSLRAEDTAVYYCTRHGGDSGSWSYYYYGMDVWGQGTTVTVSS VL: not shown
